Laboratory results taken from the supplement of paper PMC9732359.
± gives the uncertainty stated by the source.

Assay: protein stability index of a GFP-peptide fusion (yeast GPS) (PSI 1-4); higher = more stable; sorted into four equal gates, so the index is relative within each strain
Conditions: doa10∆
Summary of the method: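 The protein stability index of a peptide was calculated by multiplying its read frequency in each gate by that gate's number and adding the products. The peptides were tiled 17-residue stretches of yeast proteins, fused downstream of GFP on a Cherry-expressing plasmid and carried in yeast as a pooled library. Mid-log cultures in leucine-free medium were sorted into four equal gates by GFP/Cherry ratio, and each gate's plasmids were PCR-amplified and Illumina-sequenced.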

| Sequence | protein stability index |
| --- | --- |
| SIVGVDLSSAASASGAA [FAS2] | 1.77 ± 0.13 |
| SIYDKWTDPNLKSSLAD [RPN1] | 2.99 ± 0.1 |
| SKAFKESSDFGAIILTK [SRP54] | 2.12 ± 0.073 |
| SKAPAEKKPAAKKTSTS [HTB1] | 3.17 ± 0.13 |
| SKDVSRLLSALGPRGVS [SRP21] | 3.09 ± 0.14 |
| SKEKANFLETIASTEKP [SIR4] | 2.26 ± 0.069 |
| SKEQIHGSIIILGMLSL [YCS4] | 2.45 ± 0.053 |
| SKIIVFPRNGKAPEAEQ [RPL13A] | 3.19 ± 0.12 |
| SKILSQAPSELELQVAK [RPS7B] | 2.96 ± 0.057 |
| SKINELSYYVEETNVDI [SMC4] | 3.28 ± 0.17 |
| SKKGKPTVNKKPKNKKK [SRP72] | 2.73 ± 0.15 |
| SKLNELKKELKLLAKEL [SMC2] | 2.92 ± 0.11 |
| SKNAERKWAARAASAKI [RPS8A] | 3.135 ± 0.03 |
| SKNTAVSKVQKRKVLEL [SRP72] | 2.66 ± 0.11 |
| SKQPNSAIRKCVRVQLI [RPS23A] | 2.69 ± 0.078 |
| SKRLPLRFPEHTSSGSV [BRR2] | 2.9 ± 0.096 |
| SKRPQLGEIPNPMKKHK [SIR4] | 2.44 ± 0.075 |
| SKSAFSFGTANTNGTNA [YOR098C/NUP1] | 3 ± 0.088 |
| SKVIIKFLQVMQKHGYI [RPS22A] | 1.95 ± 0.038 |
| SKVSKQQAKGAFQKVAA [RPL24B] | 2.45 ± 0.042 |
| SLDAREANFDLINIDTS [RPC40] | 3.5 ± 0.078 |
| SLDNKTLDDLVTKWTNQ [YJL041W/NSP1] | 3.08 ± 0.056 |
| SLEALIDLCHDFPHLTP [YCS4] | 2.31 ± 0.042 |
| SLEDPQVRKKQIETINF [YDL116W/NUP84] | 1.72 ± 0.12 |

| Sequence | protein stability index |
| --- | --- |
| SLEEIIAEGQKKFATVP [RPP2B] | 2.77 ± 0.061 |
| SLGSSSTTASGTTATGT [YGR119C/NUP57] | 3.08 ± 0.072 |
| SLHPLFEQFEKFYEEKL [RPN9] | 2.67 ± 0.24 |
| SLIRNNLHAEGWPKLQL [ECM29] | 1.15 ± 0.056 |
| SLKALASKYNCDKSVCR [RPL40A] | 3.08 ± 0.069 |
| SLLESGSEILGDLKLQV [RPO21] | 3.59 ± 0.27 |
| SLLLKNYLNDMHDSNLQ [SKP1] | 2.31 ± 0.093 |
| SLMDTLITPAVRNTAPN [YCG1] | 1.6 ± 0.061 |
| SLMSSQNKLFYITNADD [SIR3] | 2.77 ± 0.15 |
| SLNLQYVNYEISTAKAW [YML103C/NUP188] | 2.6 ± 0.055 |
| SLNLTDDVISNAGTNDN [MCD1] | 2.88 ± 0.047 |
| SLNSMTNAKLPNVDLVT [RGR1] | 2.53 ± 0.087 |
| SLQNNLQNNINNSNNNN [SNF11] | 3.19 ± 0.078 |
| SLRRIRDEMSKAELPQW [MED8] | 1.98 ± 0.071 |
| SLSDELNLDEIVACELI [YJL039C/NUP192] | 2.75 ± 0.13 |
| SLTYKKISLRDICLKLN [RPN3] | 2.38 ± 0.05 |
| SLYQVDPSGSYFPWKAT [PRE8] | 2.87 ± 0.1 |
| SLYTSREPRVVSALQML [PUP1] | 2.66 ± 0.11 |
| SMDVDDKNSGVKSEVDV [ITC1] | 2.52 ± 0.076 |
| SMILIQQTEKLNPQVAD [RPN2] | 1.53 ± 0.041 |
| SMRVKPSASLKLHHDLK [YMR129W/POM152] | 3.14 ± 0.079 |
| SMSGRISAKDMGQGLCN [BRR2] | 3 ± 0.11 |
| SMSLQSKNLGEINTALN [SWI1] | 2.81 ± 0.12 |
| SMTATADVLAMAKVEVN [RIP1] | 1.99 ± 0.12 |

| Sequence | protein stability index |
| --- | --- |
| SNDSQSHFDYNTLEFII [YCG1] | 2.52 ± 0.2 |
| SNGIFYGPSFTKRESLN [SIR2] | 2.85 ± 0.065 |
| SNLQRAQNVPMNIIQQQ [GAL11] | 2.47 ± 0.052 |
| SNTVNANNYSSNIGNNS [YDL088C/ASM4] | 3.17 ± 0.14 |
| SPGSPAYSPKQDEQKHN [RPO21] | 3.11 ± 0.15 |
| SPPCYIIDHIPGHSLLL [SNF5] | 2.14 ± 0.063 |
| SPPPQTHQSPPPPPQQS [SNF5] | 2.87 ± 0.034 |
| SPQQFLRAHTDDSRNPD [PRE2] | 2.93 ± 0.092 |
| SPSEFVDVAIPCNNRGK [RPS0A] | 1.74 ± 0.096 |
| SPSTSANVPSTATTGKR [RPN4] | 2.16 ± 0.18 |
| SPVRSDSADVPAFSNSN [YMR153W/NUP53] | 3.06 ± 0.096 |
| SQISPEKQTPNKKDKKK [RPN1] | 2.95 ± 0.063 |
| SQLAQVAAFVNNYPNVE [BRR2] | 2.33 ± 0.064 |
| SQLLLERLMISSDAFEV [RET1] | 1.8 ± 0.08 |
| SQPTNSTTTSLHVPNLQ [SMC4] | 1.99 ± 0.043 |
| SQTTLVQFGLNEETFTV [ARP9] | 2.85 ± 0.086 |
| SRGGVTQVRVEFLEDTS [RPS28A] | 3.41 ± 0.071 |
| SRGLFEKKLMQDNKQLY [YDL116W/NUP84] | 2.75 ± 0.067 |
| SRMRLIRQDVNLGRAVF [PRP8] | 2.06 ± 0.085 |
| SRMTVGKMIELISGKAG [RET1] | 3.14 ± 0.17 |
| SRPDILSKIKFPESIWK [YCG1] | 2.77 ± 0.049 |
| SSAHLIRINDEPILGQI [YML103C/NUP188] | 2.59 ± 0.084 |
| SSASPSALTSPTDSSKI [SIR3] | 2.71 ± 0.048 |
| SSDELKVIEEQLKHTKL [SMC4] | 3.27 ± 0.061 |

| Sequence | protein stability index |
| --- | --- |
| SSEFVSQDTKVICSVTG [RRP46] | 2.67 ± 0.054 |
| SSEGFYSKIKHLGLDDP [SIR2] | 1.83 ± 0.2 |
| SSFNFNKNLPFVWLSSE [SWI1] | 3.05 ± 0.046 |
| SSFTFGSTTIEKKNDEN [YLR335W/NUP2] | 2.79 ± 0.084 |
| SSGQDKKKKKGSNQKPK [RPT2] | 3.08 ± 0.21 |
| SSIDKKSSILTVLQKNS [YML103C/NUP188] | 1.79 ± 0.063 |
| SSIVAIDWASPEYGRII [YGL100W/SEH1] | 2.57 ± 0.13 |
| SSLNLEDTPANDSSATR [RPB8] | 2.92 ± 0.067 |
| SSNPLGITGNLDRIPMH [COB] | 2.62 ± 0.098 |
| SSPLGFEETKLSTTPTK [SIR4] | 2.57 ± 0.053 |
| SSPSHIELVVTEKEEAV [RPL17A] | 2.08 ± 0.051 |
| SSPYAAMLAAQDVAAKC [RPS14B] | 2.14 ± 0.055 |
| SSSPLAMSETLSKVSLL [PRE8] | 2.53 ± 0.071 |
| SSVEMLLDVVKGTEASN [YDL116W/NUP84] | 2.89 ± 0.071 |
| STAAAPIAAPKKPRKPR [PGD1] | 2.72 ± 0.086 |
| STEETTANTGTIGKRRT [TAF14] | 3.07 ± 0.13 |
| STELNNKQYELFMKSLI [SWI1] | 3.03 ± 0.075 |
| STEYMMQFAKSKTVKVL [RPN6] | 1.1 ± 0.064 |
| STGAADGGYNAQLAKAK [SMC2] | 3.31 ± 0.15 |
| STIDANFADKYDEVKKH [RPL8A] | 2.5 ± 0.12 |
| STKRVTKHPSLKTLTHK [POP7] | 2.56 ± 0.062 |
| STKTGTPSDLSESGSKL [POP1] | 3.4 ± 0.1 |
| STNEDQNNSKHTEDTVN [SRB5] | 2.39 ± 0.1 |
| STPDQRKRVYNIKFLSK [ESC2] | 3.34 ± 0.22 |
